Four compounds from paper PMC5053586 (Cell Cycle, 2016) can be followed below.

Assay [1] has as its target T1, TbERK8 (extracellular-signal regulated kinase 8 homolog, Tb927.10.5140) (Trypanosoma brucei, UniProt Q38B88).
T1 sequence (Q38B88 1-442): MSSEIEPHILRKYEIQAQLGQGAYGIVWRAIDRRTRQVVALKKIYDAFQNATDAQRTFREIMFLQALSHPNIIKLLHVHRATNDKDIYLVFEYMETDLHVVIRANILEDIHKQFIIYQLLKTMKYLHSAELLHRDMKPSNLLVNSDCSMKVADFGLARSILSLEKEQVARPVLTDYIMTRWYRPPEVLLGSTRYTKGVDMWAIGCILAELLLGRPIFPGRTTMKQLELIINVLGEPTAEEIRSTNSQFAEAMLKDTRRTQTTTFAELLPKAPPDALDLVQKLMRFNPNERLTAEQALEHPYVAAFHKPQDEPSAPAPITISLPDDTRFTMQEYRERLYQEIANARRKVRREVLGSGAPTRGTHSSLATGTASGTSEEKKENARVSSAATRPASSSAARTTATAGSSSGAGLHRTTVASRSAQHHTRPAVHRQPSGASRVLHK
Put plainly: HTRF kinase assay. Type of assay: biochemical. On the technique in general: In TR-FRET formats the signal depends on donor and acceptor labels being close together.

For assay [2], the target named is GST-bound canonical PIP-box from T. brucei paraflagellar complex TbPFC19 (GSTtbPFC-PIP) (Trypanosoma brucei). Put plainly: pull-down.
The target of assay [3] is GST-bound canonical PIP-box from T. brucei aurora kinase 1 (GSTtbAUK1-PIP) (Trypanosoma brucei). Put plainly: pull-down.
Assay [4] addresses T1, TbERK8 (extracellular-signal regulated kinase 8 homolog, Tb927.10.5140). Put plainly: […]-ATP kinase assay with MBP substrate, eight-point dose response. Type of assay: biochemical.
For assay [5], the target named is GST-TbERK8-PIP-box fusion protein (GSTtbE8-PIP) (Trypanosoma brucei). Put plainly: pull-down.

Compound `COc1ccccc1C(=O)c1cnc(NC2CCN(C(=O)Nc3ccccc3)CC2)nc1N` [SCYX5070] displayed an IC50 in assay [1] of approximately 1600 µM.
Turning to “recombinant wt-TbPCNA6H (natural protein)”, the results for the fold pulled down against the TbERK8 PIP-box motif in assay [2] and in assay [3] were 3 fold and 5 fold, respectively.
In turn, `Cn1cc(C2=C(c3cn(CCCSC(=N)N)c4ccccc34)C(=O)NC2=O)c2ccccc21` [Ro318220] registered an IC50 in assay [4] of 1.4 µM.
In assay [5], “hemagglutinin-tagged TbPCNA (wt-TbPCNAHA) (natural protein)” returned a fold pulled down against GST-Ctrl beads of 5 fold.

A word on the IC50: it is the concentration at which inhibition is half-maximal. Read a low IC50 as inhibition by little substance.
